In the experiment the target is functional human IL-4 receptor (hIL-4R) on TF-1 cells (human) (UniProt P24394). As to the kind of experiment: displacement of I^125-hIL-4 from TF-1 cells.

What is called IC50 is the midpoint of a concentration-inhibition curve.

B1: mouse IL-13 (mouse P600), E. coli-derived (ligand)
chain: APGPVPRSVSLPLTLKELIEELSNITQDQTPLCNGSMVWSVDLAAGGFCVALDSLTNISNCNAIYRTQRILHGLCNRKAPTTVSSLPDTKI
Molecule B1 displayed an IC50 of 0.2 nM and a percent of the I^125-hIL-4 binding displaced of 70%.
